These results are taken from article PMC4549789.

This experiment addresses Escherichia coli β sliding clamp (Escherichia coli) (UniProt P0A988).
UniProt P0A988, sequence (P0A988 whole entry): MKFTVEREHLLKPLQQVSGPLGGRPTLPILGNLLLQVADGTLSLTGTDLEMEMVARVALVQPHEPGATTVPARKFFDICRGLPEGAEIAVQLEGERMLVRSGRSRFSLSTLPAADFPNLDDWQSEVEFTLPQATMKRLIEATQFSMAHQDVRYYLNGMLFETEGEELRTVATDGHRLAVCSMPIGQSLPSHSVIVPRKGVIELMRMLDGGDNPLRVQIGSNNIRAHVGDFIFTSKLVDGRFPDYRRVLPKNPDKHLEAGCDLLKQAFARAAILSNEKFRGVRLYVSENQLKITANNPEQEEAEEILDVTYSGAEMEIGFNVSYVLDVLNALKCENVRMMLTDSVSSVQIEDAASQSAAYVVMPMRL

As for “Acidiphilium IS1634 transposase, wild type (enzyme)”, the papillae in the in vivo papillation assay of transposition in E. coli DH5α (quantification for 8 colonies) amounted to 3.15.
